Laboratory results: PMC7954794, “Protein context shapes the specificity of SH3 domain-mediated interactions in vivo” (Nature Communications, 2021)

Test system: growth of yeast strains under 51 stress conditions
Test: Growth assays in 51 stress conditions (Fig. 1E-F, S2D, S5B)
Type: cell-based, Saccharomyces cerevisiae
Design: key to Growth (Fig. S2D) / growth of ABP1 SH3-swapped strains in stress condition: log2 colony size, average of median per strain (growth score)
Conditions: FigS2D
How it was run: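 Yeast WT, SH3-deleted, KO, SH3-swapped and SH3-shuffled strains pinned in 1536 format, 12 replicates each; pregrown on YPD 2 days at 30 °C, then replicated onto 51 media at 37 °C and imaged every 2 h. Growth score = mean of per-plate median log2 colony size at 74 h.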

B1: YSC84 (protein, UniProt P32793 1-468, looked up)
Protein YSC84: MGINNPIPRSLKSETKKAAKVLRSFVKPNQVFGADQVIPPYVLKRAKGLAIITVLKAGFLFSGRAGSGVIVARLKDGTWSAPSAIAMAGAGAGGMVGVELTDFVFILNSEEAVRSFSEFGTITLGGNVSVSAGPLGRSAEAAASASTGGVSAVFAYSKSKGLFAGVSVEGSAILERREANRKFYGDNCTSKMILSGRVKVPPAADPLLRILESRAFNFTRHDHDDNASGDDFYDDGQYSDNTSHYYDDIPDSFDSTDESSTRPNTRSSRRRGMSLGSRSRYDDDYDDDGYGRGRGYGDFDSEDEDYDYGRSPNRNSSRNRGPQIDRGTKPRANTRWEDDLYDRDTEYSRPNHSGRDYDNTRGNRRGYGRERGYSLGHGPTHPSNMSNVDDLSHKMSKTGLGNESTATNSATPTAVALYNFAGEQPGDLAFKKGDVITILKKSDSQNDWWTGRTNGKEGIFPANYVRVS
- growth of ABP1 SH3-swapped strains in stress condition (Bathophenanthroline.0.1uM): 10.863
- growth of ABP1 SH3-swapped strains in stress condition (Bathophenanthroline.10uM): 10.6791
- growth of ABP1 SH3-swapped strains in stress condition (Bathophenanthroline.1uM): 10.8306
- growth of ABP1 SH3-swapped strains in stress condition (CaCl2.100mM): 10.8211
- growth of ABP1 SH3-swapped strains in stress condition (CaCl2.250mM): 10.7492
- growth of ABP1 SH3-swapped strains in stress condition (CaCl2.500mM): 10.2924
- growth of ABP1 SH3-swapped strains in stress condition (Caffein.10mM): 10.0875
- growth of ABP1 SH3-swapped strains in stress condition (Caffein.2mM): 11.0461
- growth of ABP1 SH3-swapped strains in stress condition (CdCl2.100uM): 9.612
- growth of ABP1 SH3-swapped strains in stress condition (CdCl2.10uM): 10.8942
- growth of ABP1 SH3-swapped strains in stress condition (CdCl2.50uM): 9.965
- growth of ABP1 SH3-swapped strains in stress condition (CuSO4.1mM): 10.4219
- growth of ABP1 SH3-swapped strains in stress condition (CuSO4.5mM): 8.049
- growth of ABP1 SH3-swapped strains in stress condition (Cycloheximide.0.05.uM): 11.0738
- growth of ABP1 SH3-swapped strains in stress condition (Cycloheximide.0.2.uM): 10.6488
- growth of ABP1 SH3-swapped strains in stress condition (Cycloheximide.0.5.uM): 10.1375
- growth of ABP1 SH3-swapped strains in stress condition (DMSO.2.): 11.0761
- growth of ABP1 SH3-swapped strains in stress condition (DMSO.6.): 9.8918
- growth of ABP1 SH3-swapped strains in stress condition (DMSO.8.): 9.375
- growth of ABP1 SH3-swapped strains in stress condition (Ethanol.2.): 10.7982
- growth of ABP1 SH3-swapped strains in stress condition (Ethanol.6.): 10.2832
- growth of ABP1 SH3-swapped strains in stress condition (Ethanol.8.): 10.0513
- growth of ABP1 SH3-swapped strains in stress condition (Galactose.2.): 10.753
- growth of ABP1 SH3-swapped strains in stress condition (Glycerol.2.): 9.905
- growth of ABP1 SH3-swapped strains in stress condition (Hydroxyurea.25mM): 10.7776
- growth of ABP1 SH3-swapped strains in stress condition (Hygromycin.190uM): 10.9721
- growth of ABP1 SH3-swapped strains in stress condition (Hygromycin.19uM): 10.9865
- growth of ABP1 SH3-swapped strains in stress condition (Hygromycin.95uM): 11.0398
- growth of ABP1 SH3-swapped strains in stress condition (MMS.0.004.): 10.997
- growth of ABP1 SH3-swapped strains in stress condition (MMS.0.02.): 10.758
- growth of ABP1 SH3-swapped strains in stress condition (MMS.0.04.): 10.0132
- growth of ABP1 SH3-swapped strains in stress condition (Menadione.100uM): 10.5944
- growth of ABP1 SH3-swapped strains in stress condition (Menadione.200uM): 10.563
- growth of ABP1 SH3-swapped strains in stress condition (Menadione.50uM): 10.853
- growth of ABP1 SH3-swapped strains in stress condition (NaCl.0.25M): 10.8517
- growth of ABP1 SH3-swapped strains in stress condition (NaCl.1M): 9.6266
- growth of ABP1 SH3-swapped strains in stress condition (Nitroquinoline.10uM): 10.6185
- growth of ABP1 SH3-swapped strains in stress condition (Nitroquinoline.50uM): 10.6333
- growth of ABP1 SH3-swapped strains in stress condition (Nystatin.0.01uM): 10.9762
- growth of ABP1 SH3-swapped strains in stress condition (Nystatin.0.1uM): 10.9958
- growth of ABP1 SH3-swapped strains in stress condition (Raffinose.2.): 11.0249
- growth of ABP1 SH3-swapped strains in stress condition (Rapamycin.10nM): 9.871
- growth of ABP1 SH3-swapped strains in stress condition (Rapamycin.50nM): 9.5402
- growth of ABP1 SH3-swapped strains in stress condition (SC.pH3): 10.4227
- growth of ABP1 SH3-swapped strains in stress condition (SC.pH6): 10.9991
- growth of ABP1 SH3-swapped strains in stress condition (SDS.0.01.): 11.0315
- growth of ABP1 SH3-swapped strains in stress condition (SDS.0.02.): 11.0179
- growth of ABP1 SH3-swapped strains in stress condition (SDS.0.05.): 10.9653
- growth of ABP1 SH3-swapped strains in stress condition (Sorbitol.10mM): 10.9675
- growth of ABP1 SH3-swapped strains in stress condition (Sorbitol.1mM): 11.0498
- growth of ABP1 SH3-swapped strains in stress condition (Sorbitol.5mM): 10.8766
